Paper PMC5036048 (Scientific Reports, 2016)

How the values were obtained:
[1] = biological target: T1, N43 (gp41 NHR peptide, Val539~Leu581) (HIV-1 (numbering of HIV-1 HXB2 gp160), UniProt P04578 539-581); test: cell-based or functional assay
[2] = biological target: T1, N43 (gp41 NHR peptide, Val539~Leu581); test: cell-based or functional assay; remark: listed apart in the source

T1 sequence (P04578 539-581): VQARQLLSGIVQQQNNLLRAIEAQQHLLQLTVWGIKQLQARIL

**Q.** How did the “IC50 of inhibition of HIV-1 pseudovirus B1206.W6P.ENV.A1 (subtype A)” value [1] turn out when WMEWDREINNYTSLIHSLIEESQNQQIDL [CP-IDL] was run?
**A.** 74.5 nM

**Q.** And the “IC50 of inhibition of HIV-1 pseudovirus BG505.W6M.ENV.C2 (subtype A)” value [1]?
**A.** 8.61 nM

**Q.** And the “IC50 of inhibition of HIV-1 pseudovirus BJ412.W6M.ENV.S3 (subtype C)” value [1]?
**A.** 1.21 nM

**Q.** What about the “IC50 of inhibition of HIV-1 pseudovirus MJ412.W0M.ENV.B1 (subtype C)” value [1] of the same binder?
**A.** 2.24 nM

**Q.** And the “IC50 of inhibition of HIV-1 pseudovirus SF162.LS (subtype B, R5, Tier 1)” value [1]?
**A.** 1.51 nM

**Q.** What about the “IC50 of inhibition of HIV-1 pseudovirus ZM109F.PB4 (subtype C, R5)” value [1] of the same binder?
**A.** 2.93 nM

**Q.** And the “IC50 of inhibition of HIV-1 pseudovirus pCH119 env (subtype BC, R5, Tier 2)” value [1]?
**A.** 5.79 nM

**Q.** And the “IC50 of inhibition of infection, T20-resistant strain N42T, N43K” value [2]?
**A.** 382 nM

**Q.** And the “IC50 of inhibition of infection, T2635-resistant strain K154Q” value [2]?
**A.** 9.79 nM

**Q.** What about the “IC50 of inhibition of infection, T2635-resistant strain N113E” value [2] of the same binder?
**A.** 7.99 nM

**Q.** And the “IC50 of inhibition of infection, T2635-resistant strain N126K” value [2]?
**A.** 46.4 nM

**Q.** What about the “IC50 of inhibition of infection, T2635-resistant strain Q66R, N126K” value [2] of the same binder?
**A.** 302 nM

**Q.** What about the “IC50 of inhibition of infection, panel of T20-resistant strains: WT” value [2] of the same binder?
**A.** 8.67 nM

**Q.** What about the “IC50 of inhibition of infection, panel of T2635-resistant strains: WT” value [2] of the same binder?
**A.** 10.8 nM
